Results on 4 molecules are retold here after US20250026797A1 (GOVERNMENT OF THE UNITED STATES OF AMERICA AS REPRESENTED …, published 2025).

Substitutions are numbered along the chain they refer to. In names and notes the source's numbering stands. *: point of attachment. Biotin = O=C1N[C@H]2[C@H](CS[C@H]2CCCCC(=O)*)N1

T1: wild-type human GID4 fragment (residues 116-300), purified with N-terminal His-tag (human, UniProt Q8IVV7 116-300)
T1 construct: Expressed in E. coli BL21(DE3), nickel-column purified; also called wild-type GID4; native GID4; not shown: N-terminal six-histidine tag and TEV protease recognition site from the pET21(+) construct
T1 sequence: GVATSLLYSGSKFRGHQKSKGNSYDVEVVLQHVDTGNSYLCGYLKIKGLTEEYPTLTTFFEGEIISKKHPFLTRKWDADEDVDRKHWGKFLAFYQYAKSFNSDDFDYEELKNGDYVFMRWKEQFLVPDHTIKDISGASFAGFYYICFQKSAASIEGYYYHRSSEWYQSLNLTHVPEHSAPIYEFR

B1: NH2-PGLVKSK(biotin)-COOH peptide (peptide)
peptide: H-PGLVKSK(Biotin)-OH
SMILES: CC(C)C[C@H](NC(=O)CNC(=O)[C@@H]1CCCN1)C(=O)N[C@H](C(=O)N[C@@H](CCCCN)C(=O)N[C@@H](CO)C(=O)N[C@@H](CCCCNC(=O)CCCC[C@@H]1SC[C@@H]2NC(=O)N[C@@H]21)C(=O)O)C(C)C
notes: Immobilised on streptavidin biosensors in BLI; in solution in the yeast display sorts; also called Nt-Pro peptide; target peptide
B2: yeast-surface displayed GID4 A252V variant (residues 116-300, HA-tag, (GGGGS)x3 linker, c-Myc-tag) (designed binder)
chain: YPYDVPDYAGGGGSGGGGSGGGGSGVATSLLYSGSKFRGHQKSKGNSYDVEVVLQHVDTGNSYLCGYLKIKGLTEEYPTLTTFFEGEIISKKHPFLTRKWDADEDVDRKHWGKFLAFYQYAKSFNSDDFDYEELKNGDYVFMRWKEQFLVPDHTIKDISGVSFAGFYYICFQKSAASIEGYYYHRSSEWYQSLNLTHVPEHSAPIYEFREQKLISEEDL
notes: also called A252V (Sort 3ii); not shown: yeast-surface display fusion partner encoded by the pCTCON2 plasmid
B3: yeast-surface displayed GID4 S253T variant (residues 116-300, HA-tag, (GGGGS)x3 linker, c-Myc-tag) (designed binder)
chain: B2 chain with V161A, S162T
notes: also called S253T (Sort 3i); not shown: yeast-surface display fusion partner encoded by the pCTCON2 plasmid
B4: yeast-surface displayed GID4 S283F variant (residues 116-300, HA-tag, (GGGGS)x3 linker, c-Myc-tag) (designed binder)
chain: B2 chain with V161A, S192F
notes: also called S283F (Sort 3i); not shown: yeast-surface display fusion partner encoded by the pCTCON2 plasmid

In experiment [1] the target is T1, wild-type human GID4 fragment (residues …). The experiment in a line: BLI, biotinylated peptide on streptavidin biosensor, 10 µmol/L protein. How it is done: High-throughput kinetic measurements were taken using Octet Red96e system with Octet Streptavidin (SA) Biosensors in 96-well format. The highest concentration of protein was prepared by mixing 25% of the total volume with 0.4% BSA in dialysis buffer (1×PBS) and completing subsequent dilutions with 0.1% BSA in dialysis buffer. The SA biosensors were hydrated for 10 min in the dialysis buffer with 0.1% BSA then loaded with NH₂-XXXVKSK(biotin)-COOH (where X are residues specified in the experiment and figures) by moving the sensors into wells with 10 μmol/L of the biotinylated peptide and incubating for 2 min. Unbound peptide was removed by incubating in the dialysis buffer with 0.1% BSA for 2 min in the next wells. The association of GID4 wild-type and variants were then measured by incubating the biosensors in wells with the proteins for 10 min and then dissociation measured by moving the sensors into new wells with dialysis buffer with 0.1% BSA for another 10 min. All wells contained 200 μL of specified solution. The measurements were analyzed with instrument software Data Analysis HT (Version 12).
The association and dissociation of the GID4 wild-type and the six variants to the PGLVKSK(biotin) peptide were evaluated using BLI. BLI is an optical technique that can measure interaction between protein in solution ad peptide immobilized on the biosensor tip. […] The S283F variant has an apparent faster dissociation rate compared to the other singe mutation variants. The apparent faster dissociation rate due to S283F mutation is also present in A252V-S283F mutant, when compared to the A252V-S253T mutant. […] The increase in the BLI response and shift in dissociation rate can be beneficial as an Nt-Pro recognizing protein; differences in off-rate can be used as method to distinguish different Nt-amino acids.

Experiment [2] has as its target B1. The experiment in a line: yeast-surface display, FACS with biotinylated peptide and streptavidin-R-phycoerythrin. The method, then:
After expression, aliquots of cells were pelleted at 3000 RPM for 3 min and suspended to 1 mL for sort samples and 100 μL for control samples such that OD₆₀₀=1 in 0.1% BSA in 1× phosphate-buffered saline (PBS, 137 mmol/L NaCl, 2.7 mmol/L KCl, 10 mmol/L sodium phosphate dibasic, 1.8 mmol/L potassium phosphate monobasic, pH 7.4). The samples were prepared with or without 10 μmol/L of NH₂-PGLVKSK(biotin)-COOH peptide, which has biotin attached to the C-terminal lysine residue. Cells were incubated, while rotating with mixing for 90 min at room temperature. Cells were then pelleted at 3600 RPM for 3 min at 4° C. and suspended in 1 mL of 0.1% BSA in PBS with 10 μg/mL of α-c-Myc (9E1) antibody conjugated to Alexa Fluor® 647 and 25 μg/mL of streptavidin conjugated to R-phycoerythrin (FIG. 1c). For control samples, no or single fluorescent probe was included in 100 μL total volume. After incubation in the dark for 40 min on ice, the cells were washed with 0.1% BSA in PBS and kept on ice until running on cell sorter.
Cells were sorted by fluorescence-activated cell sorting (FACS) on Sony SH800 cell sorter with 100 μm chip. Control samples were used to set up compensation and gate for single cells that show binding to both fluorescent probes (Q2 in FIG. 1d). A total of 70345 cells were sorted into two 5 mL FACS tubes with 1 mL of SD-CAA in each and then combined in 14 mL Falcon cell culture tube for growth with additional 2 mL of SD-CAA media and 10 μg/mL of Carb. After ˜36 hrs of growth at 30° C. and 300 RPM, cells were subcultured to expression media and the selecting and sorting repeated, with modification of using 1 μmol/L of the peptide and collecting 10000 cells from gated areas. A third round of expression, selection, and sorting was done using 0.5 μmol/L of the biotinylated peptide. In each round of cell sorting and amplification, ˜10⁷ cells were pelleted and frozen for plasmid extraction.

For B1, the binding result in experiment [1] is recorded as “binds”.
Consider B2, for which, in experiment [2], the binding result is recorded as “binds”.
In the case of B3, the binding result in experiment [2] is “binds”.
On the same count and under the same terms, next, B4: “binds”.
